Experimental data: US9637764B2, “Methods of producing 7-carbon chemicals via carbon chain elongation associated with cyclohexane carboxylate synthesis” (INVISTA North America S.á r.l., priority 2012, dated 2017)

Experiments:
Format in all cases: biochemical
[1] = Carboxylate reductase activity assay, pimelate to pimelate semialdehyde (NADPH consumption, absorbance at 340 nm); conditions: purified enzyme enhanced by the gene product of sfp, 2 mM pimelate, 1 mM ATP, 1 mM NADPH, pH=7.5, room temperature, 20 min; against the empty vector control; FIG. 10
Description: A sequence encoding a HIS-tag was added to the genes from Segniliparus rugosus and Segniliparus rotundus that encode the carboxylate reductases of SEQ ID NOs: 4 and 7, respectively (see FIGS. 7C and 7F), such that N-terminal HIS tagged carboxylate reductases could be produced. Each of the modified genes was cloned into a pET Duet expression vector along with a sfp gene encoding a HIS-tagged phosphopantetheine transferase from Bacillus subtilis, both under the T7 promoter. Each expression vector was transformed into a BL21[DE3] E. coli host and the resulting recombinant E. coli strains were cultivated at 37° C. in a 250 mL shake flask culture containing 50 mL LB media and antibiotic selection pressure, with shaking at 230 rpm. Each culture was induced overnight at 37° C. using an auto-induction media.
The pellet from each induced shake flask culture was harvested via centrifugation. Each pellet was resuspended and lysed via sonication, and the cell debris was separated from the supernatant via centrifugation. […]
Enzyme activity assays (i.e., from pimelate to pimelate semialdehyde) were performed in triplicate in a buffer composed of a final concentration of 50 mM HEPES buffer (pH=7.5), 2 mM pimelate, 10 mM MgCl2, 1 mM ATP and 1 mM NADPH. […] The consumption of NADPH was monitored by absorbance at 340 nm.

[2] = Carboxylate reductase activity assay, N7-acetyl-7-aminoheptanoate to N7-acetyl-7-aminoheptanal (NADPH consumption, absorbance at 340 nm); conditions: purified enzyme enhanced by the gene product of sfp, 2 mM N7-acetyl-7-aminoheptanoate, 1 mM ATP, 1 mM NADPH, pH=7.5, room temperature, 20 min; against the empty vector control; FIG. 12
Description: The activity of each of the N-terminal His-tagged carboxylate reductases of SEQ ID NOs: 3, 6, and 7 (see Examples 4, and FIGS. 7B, 7E, and 7F) for converting N7-acetyl-7-aminoheptanoate to N7-acetyl-7-aminoheptanal was assayed in triplicate in a buffer composed of a final concentration of 50 mM HEPES buffer (pH=7.5), 2 mM N7-acetyl-7-aminoheptanoate, 10 mM MgCl2, 1 mM ATP, and 1 mM NADPH. The assays were initiated by adding purified carboxylate reductase and phosphopantetheine transferase or the empty vector control to the assay buffer containing the N7-acetyl-7-aminoheptanoate then incubated at room temperature for 20 min. The consumption of NADPH was monitored by absorbance at 340 nm.

[3] = Carboxylate reductase activity assay, pimelate semialdehyde to heptanedial (NADPH consumption, absorbance at 340 nm); conditions: purified enzyme enhanced by the gene product of sfp, 2 mM pimelate semialdehyde, 1 mM ATP, 1 mM NADPH, pH=7.5, room temperature, 20 min; against the empty vector control; FIG. 13
Description: The N-terminal His-tagged carboxylate reductase of SEQ ID NO 7 (see Example 4 and FIG. 7F) was assayed using pimelate semialdehyde as substrate. The enzyme activity assay was performed in triplicate in a buffer composed of a final concentration of 50 mM HEPES buffer (pH=7.5), 2 mM pimelate semialdehyde, 10 mM MgCl2, 1 mM ATP and 1 mM NADPH. The enzyme activity assay reaction was initiated by adding purified carboxylate reductase and phosphopantetheine transferase or the empty vector control to the assay buffer containing the pimelate semialdehyde and then incubated at room temperature for 20 min. The consumption of NADPH was monitored by absorbance at 340 nm.

B1: SEQ ID NO 7: Segniliparus rotundus carboxylate reductase, Genbank Accession No. ADG98140.1 (protein, listed as Segniliparus rotundus)
chain: MTQSHTQGPQASAAHSRLARRAAELLATDPQAAATLPDPEVVRQATRPGLRLAERVDAILSGYADRPALGQRSFQTVKDPITGRSSVELLPTFDTITYRELRERATAIASDLAHHPQAPAKPGDFLASIGFISVDYVAIDIAGVFAGLTAVPLQTGATLATLTAITAETAPTLFAASIEHLPTAVDAVLATPSVRRLLVFDYRAGSDEDREAVEAAKRKIADAGSSVLVDVLDEVIARGKSAPKAPLPPATDAGDDSLSLLIYTSGSTGTPKGAMYPERNVAHFWGGVWAAAFDEDAAPPVPAINITFLPLSHVASRLSLMPTLARGGLMHFVAKSDLSTLFEDLKLARPTNLFLVPRVVEMLYQHYQSELDRRGVQDGTREAEAVKDDLRTGLLGGRILTAGFGSAPLSAELAGFIESLLQIHLVDGYGSTEAGPVWRDGYLVKPPVTDYKLIDVPELGYFSTDSPHPRGELAIKTQTILPGYYKRPETTAEVFDEDGFYLTGDVVAQIGPEQFAYVDRRKNVLKLSQGEFVTLAKLEAAYSSSPLVRQLFVYGSSERSYLLAVIVPTPDALKKFGVGEAAKAALGESLQKIARDEGLQSYEVPRDFIIETDPFTVENGLLSDARKSLRPKLKEHYGERLEAMYKELADGQANELRDIRRGVQQRPTLETVRRAAAAMLGASAAEIKPDAHFTDLGGDSLSALTFSNFLHDLFEVDVPVGVIVSAANTLGSVAEHIDAQLAGGRARPTFATVHGKGSTTIKASDLTLDKFIDEQTLEAAKHLPKPADPPRTVLLTGANGWLGRFLALEWLERLAPAGGKLITIVRGKDAAQAKARLDAAYESGDPKLAGHYQDLAATTLEVLAGDFSEPRLGLDEATWNRLADEVDFISHPGALVNHVLPYNQLFGPNVAGVAEIIKLAITTRIKPVTYLSTVAVAAGVEPSALDEDGDIRTVSAERSVDEGYANGYGNSKWGGEVLLREAHDRTGLPVRVFRSDMILAHQKYTGQVNATDQFTRLVQSLLATGLAPKSFYELDAQGNRQRAHYDGIPVDFTAESITTLGGDGLEGYRSYNVFNPHRDGVGLDEFVDWLIEAGHPITRIDDYDQWLSRFETSLRGLPESKRQASVLPLLHAFARPGPAVDGSPFRNTVFRTDVQKAKIGAEHDIPHLGKALVLKYADDIKQLGLL
[1]
  carboxylate reductase activity for converting pimelate to pimelate semialdehyde: accepted pimelate as substrate
[2]
  carboxylate reductase activity for converting N7-acetyl-7-aminoheptanoate to N7-acetyl-7-aminoheptanal: accepted N7-acetyl-7-aminoheptanoate as substrate
[3]
  carboxylate reductase activity for converting pimelate semialdehyde to heptanedial: accepted pimelate semialdehyde as substrate
